This is an account of results in patent publication US20250000945A1, “Suppression of Neurodegeneration with Zinc Transporter Protein 7” (The Regents of the University of California, priority 2021, published 2025).

In assay [1] the test system is border cells. The experiment in a line: Border cell migration in stage 10 egg chambers expressing Catsup RNAi (rescue by co-expressed transgenes). The assay is classed as in vivo, Drosophila. Particulars: co-expressed with Catsup RNAi in border cells. The text has this:
Border cell clusters are composed of 4-6 migratory cells that surround and carry two non-migratory polar cells. Expression of a Catsup RNAi line in outer, migratory border cells using fruitlessGal4^51 inhibited migration (FIG. 2A). The defect was rescued by co-expression of UAS-CatsupV5 (FIG. 2B). Reduction of Catsup::GFP confirmed the effectiveness of the RNAi (FIGS. 2C, C′ and 2D, D′). Border cell migration was also impaired when Catsup RNAi was driven by c306Gal4 (FIG. 2E), which is expressed in both polar and migratory cells.
ZIP7 resides in the ER membrane and transports Zn^2+ from the ER to the cytosol^64. To test whether the Zn^2+ transporter activity of Catsup was important for border cell migration, we introduced point mutations, H315A and H344A, which replace histidine residues that are required for Zn^2+ transport and are conserved between Catsup, ZIP7 and a more distant family member from Arabidopsis IRT1. […] We generated transgenic flies expressing the mutants under Gal4/UAS control and included a V5 tag so that we could monitor protein abundance and localization. We then co-expressed each of these RNAi-resistant transgenes with CatsupRNAi and evaluated protein expression and border cell migration (FIGS. 5B-5E). […] All the proteins were stably expressed and correctly localized to the ER (FIGS. 5B-5E), therefore the lack of rescue was likely a consequence of impaired transporter activity rather than impaired expression, localization, or another function. […] From these experiments, we conclude that Zn^2+ transport is an essential function of Catsup in promoting ERAD.
Catsup mutant fly was generated by ethyl methanesulfonate (EMS) mutagen^37. The mutation results in glycine(G) to aspartic acid(D) replacement at amino acid 178. The FLP/FRT system was used to generate the Catsup^G178D homozygous mutant clones by combining FRT40A-Catsup^G178D with hsFLP12,yw;ubi:GFPnls, FRT40A or hsFLP12,yw;ubi:RFPnls, FRT40A/(CyO). Catsup::GFP expression pattern visualized by the line from VDRC 318542 in the fTRG stocks library. The UAS-CatsupRNAi transgenic line is from VDRC 100095 P{KK103630}VIE-260B. Wild type rescue w[*]; sna[Sco]/CyO; P{w[+mCJ=UAS-Catsup. V5}6 Bloomington 63229. Additional transgenic Drosophila stocks used: UAS-wRNAi/Cyo is a lab stock, UAS-PleRNAi Bloomington 25796 y[1] v[1]; P{y[+t7.7] v[+t1.8]=TRiP.JF01813}attP2, UAS-Ple is Bloomington 37539 w[*]; P{w[+mC]=UAS-ple.T}331f2, O-fucosyltransferasel Bloomington 9376 P{UAS-O-fut.}]1.1, UAS-Notch.Intracellular.Domain on third chromosome was a gift from Artavanis-Tsakonas lab^71. The ER stress marker UAS-Xbp1-EGFP.HG Bloomington 60731 w[*]; P{w[+mC]=UAS-Xbp1.EGFP.HG}3, UAS-HSC70-3 Bloomington 5843 w[126]; P{w[+mC]=UAS-Hsc70-3. WT}B. Catsup point mutations were cloned into vector pUASt-attb with forward primer ctctgaatagggaattggg[…] (SEQ ID NO:1) and reverse primer ccgcagatctgttaacgtca[…] (SEQ ID NO:2). The vector was injected to attp2 flies y1 w67c23; P{CaryP}attP2 by BestGene Inc.
When generating UAS-Catsup-point-mutations, we designed the construct so it cannot be targeted by the CatsupRNAi sequences by substituting redundant codons for the same amino acids within the region targeted by the RNAi. The RNAi resistant sequence is below with nucleic acid substitutions in lower case:
Point mutations were designed by changing codons at the following site CatsupH183A (CAC to GCC), CatsupH187A (CAT to GCT), CatsupH315A (CAT to GCT), CatsupH344A ([…]). […]

For assay [2], the system named is Notch and EGFR. The experiment in a line: Intracellular accumulation of Notch and EGFR in mosaic clones expressing CatsupRNAi. The assay is classed as in vivo, Drosophila. Conditions: mosaic expression with CatsupRNAi. An excerpt:
In wing imaginal disc epithelia, multiple transmembrane receptor proteins, including Notch and EGFR, accumulate abnormally in Catsup mutant cells^40. We similarly found abnormal intracellular accumulation of Notch in follicle cells generally (FIG. 3D, D′) and border cells specifically (FIG. 3E, E′) upon Catsup knockdown. […] As in imaginal discs, EGFR also accumulated abnormally in Catsup RNAi-expressing border cells (FIG. 3G, G′) and epithelial follicle cells (FIG. 3H, H′), whereas E-Cadherin was unaffected (FIG. 31, I′). From these observations, we conclude that Catsup prevents intracellular accumulation of particular transmembrane proteins and promotes Notch signaling, migration and survival in multiple cell types and organisms.
ZIP7 resides in the ER membrane and transports Zn^2+ from the ER to the cytosol^64. To test whether the Zn^2+ transporter activity of Catsup was important for border cell migration, we introduced point mutations, H315A and H344A, which replace histidine residues that are required for Zn^2+ transport and are conserved between Catsup, ZIP7 and a more distant family member from Arabidopsis IRT1. […] We then co-expressed each of these RNAi-resistant transgenes with CatsupRNAi and evaluated protein expression and border cell migration (FIGS. 5B-5E). […]

B1: O-fucosyltransferase-1: Notch specific chaperone, overexpressed from a UAS transgene (protein, UniProt Q9V6X7 24-402, looked up)
GDP-fucose protein …: QLGGDPNGYLTYCPCMGRFGNQADHFLGSLAFAKALNRTLILPPWVEYRRGELRSRQVPFNTYFEVEPLKEYHRVITMADFMWHLADDIWPESERVSFCYKERYSLQQEKNDPDKPNCHAKDGNPFGPFWDTFHIDFVRSEFYAPLHFDVHHSNEAAKWQTKYPAESYPVLAFTGAPASFPVQLENCKLQRYLQWSQRYREASKDFIREQLPRGAFLGIHLRNGIDWVRACEHVKDSQHLFASPQCLGYKNERGALYPELCMPSKEAIIRQLKRTIKNVRQTQPDNEIKSVFVASDSNHMIGELNTALSRMGISVHKLPEDDPYLDLAILGQSNHFIGNCISSYSAFEKRERDVHGFPSYFWGFPKEKDRKHTNVHEEL
In the case of B1, the “rescue of border cell migration defect” value in assay [1] is recorded as “neither NICD expression nor overexpression of the Notch specific chaperone O-fucosyltransferase-1^58 was sufficient to rescue Catsup RNAi”.

B2: Catsup^H187A: V5-tagged RNAi-resistant Catsup point mutant that does not disrupt Zn2+ transport (control) (protein, UniProt Q9V3A4 1-449, looked up, variant H187A)
Protein catecholamines up: MAKQVADYQCSKLQLYQKLALVVILGAVLFSLPALCAGQGNPSFKYSREANENFDPQKAPRAEHHHHHDHDHDHGHHHHGHDHDHDHDHGHDHGHHHHGHDHDHDHDHGHHHHGHDERHTKAKPDLDMSTIWLHSIGSTLLISAAPFVLLYIIPLDNSEAMKPRLKVLLAFASGGLLGDAFLHLIPAATHPHSHGEHGHDHGHDHHHHHDGEEHEHGHSHDMSIGLWVLGGIIAFLSVEKLVRILKGGHGGHGHSHGAPKPKPVPAKKKSSDKEDSGDGDKPAKPAKIKSKKPEAEPEGEVEISGYLNLAADFAHNFTDGLAIGASYLAGNSIGIVTTITILLHEVPHEIGDFAILIKSGCSRRKAMLLQLVTALGALAGTALALLGAGGGDGSAPWVLPFTAGGFIYIATVSVLPELLEESTKLKQSLKEIFALLTGVALMIVIAKFE
modifications: V5 tag
In the case of B2, the “rescue of border cell migration defect” value in assay [1] was “rescue border cell migration to nearly wild type levels”. The “rescue of accumulation of Notch and EGFR” value in assay [2] is reported as “did”.

B3: Catsup^H315A: V5-tagged RNAi-resistant Catsup point mutant replacing a histidine required for Zn2+ transport (protein, UniProt Q9V3A4 1-449, looked up, variant H315A)
Protein catecholamines up: MAKQVADYQCSKLQLYQKLALVVILGAVLFSLPALCAGQGNPSFKYSREANENFDPQKAPRAEHHHHHDHDHDHGHHHHGHDHDHDHDHGHDHGHHHHGHDHDHDHDHGHHHHGHDERHTKAKPDLDMSTIWLHSIGSTLLISAAPFVLLYIIPLDNSEAMKPRLKVLLAFASGGLLGDAFLHLIPHATHPHSHGEHGHDHGHDHHHHHDGEEHEHGHSHDMSIGLWVLGGIIAFLSVEKLVRILKGGHGGHGHSHGAPKPKPVPAKKKSSDKEDSGDGDKPAKPAKIKSKKPEAEPEGEVEISGYLNLAADFAANFTDGLAIGASYLAGNSIGIVTTITILLHEVPHEIGDFAILIKSGCSRRKAMLLQLVTALGALAGTALALLGAGGGDGSAPWVLPFTAGGFIYIATVSVLPELLEESTKLKQSLKEIFALLTGVALMIVIAKFE
Turning to B3, the “rescue of border cell migration defect” value in assay [1] is on record as “neither Castup^H344A nor Catsup^H315A provided significant rescue”.

B4: Catsup^H183A: V5-tagged RNAi-resistant Catsup point mutant that does not disrupt Zn2+ transport (control) (protein, UniProt Q9V3A4 1-449, looked up, variant H183A)
Protein catecholamines up: MAKQVADYQCSKLQLYQKLALVVILGAVLFSLPALCAGQGNPSFKYSREANENFDPQKAPRAEHHHHHDHDHDHGHHHHGHDHDHDHDHGHDHGHHHHGHDHDHDHDHGHHHHGHDERHTKAKPDLDMSTIWLHSIGSTLLISAAPFVLLYIIPLDNSEAMKPRLKVLLAFASGGLLGDAFLALIPHATHPHSHGEHGHDHGHDHHHHHDGEEHEHGHSHDMSIGLWVLGGIIAFLSVEKLVRILKGGHGGHGHSHGAPKPKPVPAKKKSSDKEDSGDGDKPAKPAKIKSKKPEAEPEGEVEISGYLNLAADFAHNFTDGLAIGASYLAGNSIGIVTTITILLHEVPHEIGDFAILIKSGCSRRKAMLLQLVTALGALAGTALALLGAGGGDGSAPWVLPFTAGGFIYIATVSVLPELLEESTKLKQSLKEIFALLTGVALMIVIAKFE
modifications: V5 tag
On to B4, for which, in assay [1], the “rescue of border cell migration defect” value is on record as “rescue border cell migration to nearly wild type levels”. For the same molecule, the “rescue of accumulation of Notch and EGFR” value in assay [2] is “did”.
